Results on one substance are retold here after PMC2990977.

For the assay, the target named is 80S ribosome from Thermomyces lanuginosus (Thermomyces lanuginosus). Put plainly: co-sedimentation.

“eukaryotic elongation factor 2 (eEF2) from Thermomyces lanuginosus (natural protein)” registered an occupancy relative to Sordarin-trapped eEF2 of 60 to 70% and a percent eEF2 bound (GDP only) of 16%.
